Results published in patent US20090010911A1, “METHODS AND COMPOSITIONS FOR AFFECTING CYCLOPHILIN A REGULATION OF KINASES IN MODULATING CELLULAR ACTIVITIES” (IOWA STATE UNIVERSITY RESEARCH FOUNDATION, INC., priority 2007, published 2009).

Molecular target: T1, full length Itk (Mus musculus, UniProt Q03526)
T1 construct: made in house; host or cells: Sf9 insect cells (baculovirus), co-infected 1:1 with Lck baculovirus
T1 sequence (Q03526 1-625): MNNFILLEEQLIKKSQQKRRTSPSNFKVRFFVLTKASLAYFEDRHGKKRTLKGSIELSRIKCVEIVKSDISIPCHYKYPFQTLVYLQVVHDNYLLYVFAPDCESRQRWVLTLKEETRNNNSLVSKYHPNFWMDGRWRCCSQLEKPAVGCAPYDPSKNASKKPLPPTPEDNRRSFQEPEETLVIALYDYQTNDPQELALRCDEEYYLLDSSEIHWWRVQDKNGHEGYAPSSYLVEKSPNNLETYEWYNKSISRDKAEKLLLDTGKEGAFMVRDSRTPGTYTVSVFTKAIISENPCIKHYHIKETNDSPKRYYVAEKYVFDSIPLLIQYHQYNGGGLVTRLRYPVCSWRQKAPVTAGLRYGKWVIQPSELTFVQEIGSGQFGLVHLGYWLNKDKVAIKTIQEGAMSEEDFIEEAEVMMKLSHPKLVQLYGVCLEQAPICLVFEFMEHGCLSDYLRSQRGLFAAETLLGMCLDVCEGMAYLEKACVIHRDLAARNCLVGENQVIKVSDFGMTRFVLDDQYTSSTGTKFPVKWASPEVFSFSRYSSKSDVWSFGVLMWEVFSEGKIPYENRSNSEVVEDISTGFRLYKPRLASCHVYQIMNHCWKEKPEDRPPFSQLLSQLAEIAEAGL
Assay: In vitro Itk kinase assay using Peptide B as the substrate (initial velocities)
Format: biochemical
Details: full length Itk
Procedure: Substrate used in each experiment is indicated above each set of blots. 4(a) (left) Itk 32 substrate was incubated with Itk full-length enzyme as before (lane 1), or with Itk 32 domain:free Itk SH2 domain in ratios of 1:10, 1:25 or 1:50 (lanes 2-4, respectively) or equivalent ratios of PI3K N-terminal SH2 domain (lanes 5-7) and subjected to an in vitro kinase assay. […] Coomassie stain and an anti-FLAG blot (bottom panels) show protein levels. (right) The PLCγ1 SH2 domain competes with the PLCγ1 substrate in a similar manner. Lane 1 contains only Itk enzyme and PLCγ1 SH2C-Y783-substrate without additional free SH2 domain. Ratios of free SH2 domain to substrate are 1:5, 1:10 or 1:50 in lanes 2-4, respectively and equivalent ratios of PI3K SH2 domain are used in lanes 5-7. Coomassie stain of the gel and an anti-Itk blot (bottom panels) show protein levels. 4(b) Same experiment as shown in (a) using the Grb2 SH2 domain as a control. (left) Itk 32 substrate was incubated with Itk full-length enzyme (lane 1), or with Itk 32 domain:free Itk SH2 domain in ratios of 1:10 and 1:25 (lanes 2 & 3) or equivalent ratios of Grb2 SH2 domain (lanes 4 & 5) and subjected to an in vitro kinase assay. […]
The ratio of CypA to Itk varied between o and 100 times excess CypA. […] No change in Peptide B phosphorylation is detected. […]

levels of peptide B phosphorylation (initial velocity) with increasing concentrations of SH2 domain: do not change significantly
B1: Itk SH2 domain: isolated exogenous SH2 domain of Itk, purified from bacteria (protein)
chain: EWYNKSISRDKAEKLLLDTGKEGAFMVRDSRTPGTYTVSVFTKAIISENPCIKHYHIKETNDSPKRYYVAEKYVFDSIPLLIQYHQYNGGGLVTRLRYPVCSWRQKA
